Assay results taken from the supplement of paper PMC12042874.
± gives the uncertainty stated by the source.

Assay: amyloid nucleation score (Sup35N fusion, yeast selection) (log enrichment); library NNK1; higher = more nucleation; inactive = no reads after selection
In short: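 In psi-negative yeast, Sup35N fusions carrying peptides of 20 random codons were induced with 100 μM copper sulfate for 24 hours. The cells then grew 7 days at 30°C on medium lacking adenine and uracil, and plasmid inserts from input and output were Illumina-sequenced, excluding sequences with under 100 input reads. Nucleation score is the DiMSum log enrichment of output over input reads, centred on the mode score of non-aggregating sequences.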

| Substance | amyloid nucleation score |
| --- | --- |
| RFNTEKRLALNNNMPLRWFS | -0.125 ± 1.7 |
| RFQVPLCIPLINC | 0.886 ± 0.74 |
| RFRSCSYLVNRSSMLAATDG | inactive |
| RFWSAL | -0.148 ± 0.92 |
| RFWSIDRCAWSLMGGILRYG | -0.01 ± 0.43 |
| RFYMCRLEGVPFES | 0.58 ± 0.79 |
| RGAASKDLLMV | 0.082 ± 0.86 |
| RGEKHVRVYRVMSV | -0.192 ± 0.49 |
| RGGSYMFRLYCVFLYGCYFG | -0.577 ± 0.72 |
| RGIYWVSFVLSGRIIGWMVG | 0.275 ± 0.8 |
| RGLLYS | 0.768 ± 0.75 |
| RGLTYVRVVGLARIGSACSV | 0.335 ± 0.53 |
| RGMGVAWAYLSSNTRPRRLN | 0.792 ± 0.76 |
| RGMIFLHQASCLHRDN | -0.836 ± 0.61 |
| RGNLESFVLGNIRVTNP | 1.01 ± 0.18 |
| RGSYHRLWCI | 0.114 ± 0.72 |
| RGTDLSSYTSFVC | 0.28 ± 0.41 |
| RHFEDYMELSSLSLGMGEG | -0.394 ± 0.63 |
| RHIFIRGIVYCCVSTFRFPS | -0.218 ± 0.27 |
| RHMRSHENVGKFWRLSCFVN | -0.36 ± 0.51 |
| RHVAYRSLRFSGCTP | 0.416 ± 0.76 |
| RHVSPFNSS | -0.222 ± 0.31 |
| RIASSRVFFAFFRSLYMSGW | 0.995 ± 0.47 |
| RIDTFTWSCKCLPPSSIWLL | 0.009 ± 0.76 |
| RIDYWVIPGAWNSTCWRYTT | 1.49 ± 0.45 |

| Substance | amyloid nucleation score |
| --- | --- |
| RIFNIYNGVQRRNFYYFYSC | 7.532 ± 0.05 |
| RIGFPVRYEEFALRFIYILE | -0.261 ± 0.72 |
| RIKFDTKMRTVQCSCGSLHS | 2.78 ± 0.18 |
| RILYMYWVFMVLFMTPRCLD | -0.099 ± 0.48 |
| RITHRFVFTRAFTNGRALLR | 0.405 ± 0.27 |
| RIVYLCSSGCVRKCWLLCSG | 2.29 ± 0.24 |
| RIWLTFTSFIYDNVDRILVQ | -0.2 ± 0.67 |
| RIWPQIVCDIDIRP | -0.444 ± 0.52 |
| RKASYLSAVNMQFRESFLFW | -0.209 ± 0.28 |
| RKFMDYSLKFSWRGVIPVMR | -1.83 ± 1.8 |
| RKFRGLVKLL | 1.28 ± 0.85 |
| RKLKSCSTNGHIG | 6.02 ± 0.063 |
| RKNAFDFDAS | -0.099 ± 0.42 |
| RKNFMGSEFVLDNILCLFLL | 7.583 ± 0.055 |
| RKSFLTLVNFYYLFRC | 3.1 ± 0.12 |
| RKYKRTVMDMKCYWQGVWSV | 0.136 ± 0.5 |
| RLDISSYSLFGINQVWA | 2.63 ± 0.17 |
| RLGAGCSPSLVLS | 0.197 ± 0.56 |
| RLKGSPHVLL | -1.69 ± 1.2 |
| RLLVFQSCKFVRGTSLCLVT | 3.66 ± 0.069 |
| RLRDIG | -0.684 ± 1.2 |
| RLSGGLADHNIFNFRIT | 0.805 ± 0.76 |
| RLSHRM | -0.994 ± 0.54 |
| RLSRKISSWLTRYIIAWSWS | -0.713 ± 0.61 |
| RLSSSIYAFSDIHCGMSEAQ | 0.168 ± 0.26 |

| Substance | amyloid nucleation score |
| --- | --- |
| RLTDRHLLWIIMQELNGFLV | -1.09 ± 2.7 |
| RLWIVPLGLWCLRHRVCCRP | -0.246 ± 0.65 |
| RMPNGTWSIGRHLVD | 0.384 ± 0.79 |
| RMQVKDLVDQVKTTFKCTHT | 0.303 ± 0.37 |
| RNFLIVLPSVYRGPFI | 5.36 ± 0.064 |
| RNFWF | 0.078 ± 0.34 |
| RNIPGFVETVINGSCGALLT | 0.636 ± 0.52 |
| RNKSGSGYKLFVSGELAQQM | inactive |
| RNLRY | 0.184 ± 1.1 |
| RNMLELSFWCYEMKNSSSWS | 1.15 ± 0.24 |
| RNQVRDSRVISGPNFSSMKK | -0.51 ± 0.71 |
| RNRNCFSRYCRLIV | -1.45 ± 0.56 |
| RNRYTFSIRLVQTDYCFLGM | 1.63 ± 0.19 |
| RNSDSNTVGNRSFWLLGIL | 0.389 ± 0.3 |
| RNSRICSFS | 0.59 ± 0.35 |
| RNTFHFNNMALPVLQT | -1.23 ± 0.77 |
| RNYPTRPYRGVINHLGFCRV | -1.06 ± 0.57 |
| RPFRLYECCCDGELFLN | -0.997 ± 0.51 |
| RPGGGAACAVRGRLPVCQLG | -1.13 ± 0.96 |
| RPGMEADLLVNLPLF | 0.958 ± 0.72 |
| RPYGPYALLWSISIYAWELL | 0.508 ± 0.61 |
| RQDGYPRCIVRVILLECSLI | -0.321 ± 0.66 |
| RQLVIIFNDDLGDVGNGNFC | 7.61 ± 0.043 |
| RQRTIFWLMFWELAMFNCHM | -0.423 ± 0.74 |
| RQSRLAYGCVLVYVLTADFG | -0.025 ± 0.29 |

| Substance | amyloid nucleation score |
| --- | --- |
| RRAPLNLTREVSSVWEWRII | -0.631 ± 0.68 |
| RRGFVAHLFLVLTVVCNLNS | 7.2 ± 0.071 |
| RRGGGGSSIFLMHTAWILLE | 1.03 ± 0.34 |
| RRGLCGNAKAIIRGLAQGWD | -1 ± 1.2 |
| RRHTLSFVTGFCVIGFYGGD | 4.48 ± 0.063 |
| RRMGKSFKAYTDGVQRKILS | 0.593 ± 0.68 |
| RRPASFLFFTYPILLQVFTF | -1.22 ± 2.1 |
| RRRCSSVGRDLMAGSDKRYE | 0.663 ± 0.24 |
| RRRPGPLPRCAF | 1.96 ± 0.18 |
| RRSMGRGVLVKGRGSCREYV | 0.251 ± 0.81 |
| RRVGLVASDTGRGEWWTRSM | -0.015 ± 0.55 |
| RRVGVYDGLRIFS | 0.086 ± 0.93 |
| RRVGWLRTRSG | 0.731 ± 0.41 |
| RRVNNKLRSTSGSTLTCCTY | 0.216 ± 1.4 |
| RRWGLFDIFKMPKELNMLHW | 0.915 ± 1.1 |
| RRWRTFLMRCKRNDTSKIRR | -1.36 ± 1.2 |
| RSCSNRIIKCNLSHVMFY | 4.45 ± 0.052 |
| RSDISASHRSVGLLNSHRTD | -0.58 ± 1.5 |
| RSFAYSLSQGYFANMNAKVR | inactive |
| RSLFRECEKIVDRHSMSNFH | 0.445 ± 0.4 |
| RSLLLALFAICYVCGGYEWV | 1.24 ± 0.85 |
| RSMRDLDPTMVFGSVNSLGW | 0.166 ± 0.63 |
| RSMYVSRRPIVPPLYIGFWE | 0.166 ± 0.48 |
| RSRIYCGFNRPTCEGFSRLS | 2.63 ± 0.11 |
| RSRPVPIVKDRSISNSRESR | -0.999 ± 2.4 |

| Substance | amyloid nucleation score |
| --- | --- |
| RSSCL | -2.09 ± 2.4 |
| RSSKYVNHASQKNAHLRGCS | 0.641 ± 0.7 |
| RSSNNIPGGYWEPYGQHHFH | 2.44 ± 0.13 |
| RSTYVCKIRVRMIYVDVKCS | 0.596 ± 0.46 |
| RSVSLKWQSRKHWLLTLTLA | 0.931 ± 0.32 |
| RSYGGLIKFNHVSDTL | -0.429 ± 0.93 |
| RTCAWVGQHATSLWPFNRGQ | 0.493 ± 0.77 |
| RTCSKHYIWYKALIGFALGN | -0.27 ± 0.33 |
| RTEGVET | -0.251 ± 0.58 |
| RTELPHFFRVFAHRFACSGD | 1.31 ± 0.93 |
| RTILISAGAKCVNLMMLDSV | 1.6 ± 0.29 |
| RTMHVRFDIRKVALKIFKFY | 1.3 ± 0.4 |
| RTPHVERGTGIGLEISSTEV | 0.041 ± 0.97 |
| RTRLFYFGPDNNRVRRRGCS | 1.13 ± 0.71 |
| RTSRHVVVRREMRDRT | 0.202 ± 0.21 |
| RTVVQKKPVRCNMICNYWVF | 4.82 ± 0.064 |
| RVCKYGCAKT | 0.566 ± 0.34 |
| RVDGVKIRGYNWHLLMITCI | 0.083 ± 0.6 |
| RVETYRSYGAIIEVNRPVYM | 0.625 ± 0.6 |
| RVGILRMYSMFQFFKSLQWI | -0.372 ± 0.86 |
| RVGWMLNGAGALWFFRYKLN | -0.256 ± 0.7 |
| RVIPAAVISHYVK | -0.143 ± 1.7 |
| RVLATKRRLQKRLHESVLLA | 0.34 ± 1.1 |
| RVLRVFLGDTLFYCQSGSGL | 1.84 ± 0.22 |
| RVLSVIVNILIARFT | -0.028 ± 0.25 |

| Substance | amyloid nucleation score |
| --- | --- |
| RVMFACF | 0.15 ± 0.37 |
| RVNIV | -0.624 ± 0.48 |
| RVNMWRYI | 0.295 ± 0.4 |
| RVNYDVLVHLMPGLWVRTRL | 0.372 ± 1.4 |
| RVQFRKSTVSISYQNGFCTQ | 2.73 ± 0.086 |
| RVSKFPKSFNVSFKADNKIH | 4.02 ± 0.06 |
| RVSPFISNTFVVNSKETHGV | 4.56 ± 0.056 |
| RVYILFRHLVYSGGKFSVFI | inactive |
| RVYISMM | -1.41 ± 1.7 |
| RVYLFNYICGGLDFFLRPTV | 5.37 ± 0.081 |
| RWCLSTRKFSWR | 0.305 ± 0.42 |
| RWFDYDESESVKSVHLNLVR | -1.37 ± 0.89 |
| RWGLRQIMVVENFIHRWVCP | 1.04 ± 0.79 |
| RWPTRNFQGTVRYAR | -0.62 ± 0.7 |
| RWSETR | 0.998 ± 0.48 |
| RWSFSSTY | 3.69 ± 0.085 |
| RWSWTVIMSMEADGCFRLHL | 1.68 ± 0.28 |
| RYAISYNLRVVGLISMYRNT | 0.655 ± 0.29 |
| RYDAWCYGWGVMMLHKFIG | -0.012 ± 0.64 |
| RYHRTGCLGILWLSLSHRLS | 0.418 ± 0.59 |
| RYHRWFRVRSSENRWGIC | -0.51 ± 0.93 |
| RYHTVYGIYGRLWGWFMKFD | -0.159 ± 0.33 |
| RYIRLRMFLCLFYLMCLPRR | -1.25 ± 0.75 |
| RYIVVG | 0.106 ± 0.24 |
| RYPSLLWIFDFNYLLYLRFQ | -0.451 ± 0.25 |

| Substance | amyloid nucleation score |
| --- | --- |
| RYSLYQSEWVGKSMRDLTAR | 1.03 ± 0.62 |
| RYTFVITVYKIDDSSEMSWV | 0.82 ± 0.25 |
| RYTRSGLIDMFTNSSTDAHS | 0.115 ± 0.43 |
| RYWCCSPVRSLVHGRHCEV | 1.52 ± 0.24 |
| RYYGLFVYVARIYSALRSCK | -0.104 ± 0.33 |
| SAAPRFCSYSSFFALSNLSI | 0.615 ± 0.3 |
| SAASPFFFSDCGWPSGILNY | 1.26 ± 0.67 |
| SAHSDPQMRKNSLTYGNDLI | -0.116 ± 0.42 |
| SAPENSWGAWLDYGELEVGW | 0.016 ± 0.35 |
| SASSMVFNTTSPT | -0.404 ± 0.51 |
| SASVAHLCDYVVENI | 0.018 ± 0.54 |
| SASWGRYGERLHCDQRYFII | inactive |
| SAVGYISLLYNSWAKYTICN | -0.562 ± 0.69 |
| SCAWRYNICTLISVRWVCK | 0.756 ± 0.34 |
| SCCWVSIDSNQCHRACTVRT | -0.136 ± 0.56 |
| SCEFLCVRHVLCHHLSLNVS | 0.296 ± 1.4 |
| SCGNLIVRPLVGVCHAWNEE | 0.489 ± 0.46 |
| SCGWDLVCGMMAVHSSGIVL | 0.975 ± 0.42 |
| SCHYDQPDQKLLASQSLL | -1.02 ± 0.68 |
